Test results as given in US20110038894A1 (NATIONAL HEALTH RESEARCH INSTITUTES, published 2011).

Each binder was assayed against His-tag fused human HLA-A2 heavy chain (His-HLA-A2) with His-Tag fused human β2-microglobulin (His-β2) (human) (assay: MHC-peptide complex formation assay: refolding of His-HLA-A2, His-β2m and peptide, sandwich ELISA (W6/32 capture, anti-β2m detection), relative to positive control peptide).
In the case of GLAEGPLCL (also called TAL6 114-122) [TAL6 peptide No. 10 of Table 1, GLAEGPLCL], the “Relative binding (%)” value is reported as 72.4%. In the case of SLVGLALLC (also called TAL6 13-21) [TAL6 peptide No. 2 of Table 1, SLVGLALLC], the “Relative binding (%)” value is reported as 126%. LLMLLPAFV (also called TAL6 58-66) [TAL6 peptide No. 5 of Table 1, LLMLLPAFV] was tested, and the “Relative binding (%)” value was 134%. For ALLCIAANI (also called TAL6 18-26) [TAL6 peptide No. 3 of Table 1, ALLCIAANI], the “Relative binding (%)” value was 53.6%. For SLFSILLAL (also called TAL6 161-169) [TAL6 peptide No. 12 of Table 1, SLFSILLAL], the “Relative binding (%)” value was 42.6%. With CIGHSLVGL (also called TAL6 9-17) [TAL6 peptide No. 1 of Table 1, CIGHSLVGL] the “Relative binding (%)” value was 93.3%. For SVLAALIGI (also called TAL6 93-101) [TAL6 peptide No. 9 of Table 1, SVLAALIGI], the “Relative binding (%)” value was 158%. ALGGIEFIL (also called TAL6 168-176) [TAL6 peptide No. 14 of Table 1, ALGGIEFIL] was tested, and the “Relative binding (%)” value was 113%. For IVGGGLLML (also called TAL6 53-61) [TAL6 peptide No. 4 of Table 1, IVGGGLLML], the “Relative binding (%)” value was 43.4%. In the case of SILLALGGI (also called TAL6 164-172) [TAL6 peptide No. 13 of Table 1, SILLALGGI], the “Relative binding (%)” value is reported as 51.8%. CLIQVINGV (also called TAL6 177-185) [TAL6 peptide No. 15 of Table 1, CLIQVINGV] was tested, and the “Relative binding (%)” value was 26.3%. VINGVLGGI (also called TAL6 181-189) [TAL6 peptide No. 16 of Table 1, VINGVLGGI] was tested, and the “Relative binding (%)” value was 59.1%. With HIVEWNVSL (also called TAL6 154-162) [TAL6 peptide No. 11 of Table 1, HIVEWNVSL] the “Relative binding (%)” value was 91.1%. For AMLSSVLAA (also called TAL6 89-97) [TAL6 peptide No. 7 of Table 1, AMLSSVLAA], the “Relative binding (%)” value was 115%. In the case of MLSSVLAAL (also called TAL6 90-98) [TAL6 peptide No. 8 of Table 1, MLSSVLAAL], the “Relative binding (%)” value is reported as 163%. In the case of MLLPAFVFI (also called TAL6 60-68) [TAL6 peptide No. 6 of Table 1, MLLPAFVFI], the “Relative binding (%)” value is reported as 155%.
